# Results from patent publication US10246503B2, “Method of improving the pharmacokinetic profile of a therapeutic polypeptide and the use thereof” (BEIJING ANXINHUAIDE BIOTECH. CO., LTD, priority 2012, dated 2019).
# Positions count from the first letter of the chain named. Names and notes keep the numbering of the source.
# B1: GLP-1-Fn7-COL18NC1 (ligand)
# chain: HAEGTFTSDVSSYLEGQAAKEFIAWLVKGRGGGGSGGGGTPLSPPTNLHLEANPDTGVLTVSWERSTTPDITGYRITTTPTNGQQGNSLEEVVHADQSSCTFDNLSPGLEYNVSVYTVKDDKESVPISDTIIPAGGGSGGGASSGVRLWATRQAMLGQVHEVPEGWLIFVAEQEELYVRVQNGFRKVQLEARTPLPRG
# B2: GLP-1(A8G/G22E)-Fn8-p246-COL18NC1 (ligand)
# chain: HGEGTFTSDVSSYLEEQAAKEFIAWLVKGRGSGGGSGGGSGGGSGGGSGSGGAVPPPTDLRFTNIGPDTMRVTWAPPPSIDLTNFLVRYSPVKNEEDVAELSISPSDNAVVLTNLLPGTEYVVSVSSVYEQHESTPLRGRQKTGGGGSGGGSGSGSESGSGGGSTSSGTGSETESPGSGSESGSGPSSAGSGSGSESGSGSGSSGPGSTGGSGSESGSGPGSSGTGGTATGSGSESGSGPGSSGPGSTGSGSGSESGSGSGSSGTGSTGGSGSESGSGPGSPRPGSTGTGSGSESGSGPGSSERGSAGGSGSESGSGTSESSASGSTGGSGSESGSGSESGSGSGSESGSGPESPGSGGSGSESGSGTSGSTGSGSESGSGGGSGGGSGGGASSGVRLWATRQAMLGQVHEVPEGWLIFVAEQEELYVRVQNGFRKVQLEARTPLPRG
# B3: GLP-1(A8G/G22E/R36S)-Fn8-p246-COL18NC1 (ligand)
# chain: B2 chain with R30S
# B4: GLP-1(A8G/G22E/R36G)-Fn8-p246-COL18NC1 (ligand)
# chain: B2 chain with R30G
# B5: GLP-1(A8S/G22E)-Fn8-p246-COL18NC1 (ligand)
# chain: B2 chain with G2S
# B6: GLP-1(A8V/G22E)-Fn8-p246-COL18NC1 (ligand)
# chain: B2 chain with G2V
# B7: GLP-1(A8G/G22E/R36G)-TNCfn3-p246-COL18NC1 (ligand)
# chain: HGEGTFTSDVSSYLEEQAAKEFIAWLVKGGGSGGGSGGGSGGGSGGGSGSGGRLDAPSQIEVKDVTDTTALITWFKPLAEIDGIELTYGIKDVPGDRTTIDLTEDENQYSIGNLKPDTEYEVSLISRRGDMSSNPAKETFTTGGGGSGGGSGSGSESGSGGGSTSSGTGSETESPGSGSESGSGPSSAGSGSGSESGSGSGSSGPGSTGGSGSESGSGPGSSGTGGTATGSGSESGSGPGSSGPGSTGSGSGSESGSGSGSSGTGSTGGSGSESGSGPGSPRPGSTGTGSGSESGSGPGSSERGSAGGSGSESGSGTSESSASGSTGGSGSESGSGSESGSGSGSESGSGPESPGSGGSGSESGSGTSGSTGSGSESGSGGGSGGGSGGGASSGVRLWATRQAMLGQVHEVPEGWLIFVAEQEELYVRVQNGFRKVQLEARTPLPRG
# B8: GLP-1(A8G/G22E/R36G)-Fn8-p246-COL15NC1 (ligand)
# chain: HGEGTFTSDVSSYLEEQAAKEFIAWLVKGGGSGGGSGGGSGGGSGGGSGSGGAVPPPTDLRFTNIGPDTMRVTWAPPPSIDLTNFLVRYSPVKNEEDVAELSISPSDNAVVLTNLLPGTEYVVSVSSVYEQHESTPLRGRQKTGGGGSGGGSGSGSESGSGGGSTSSGTGSETESPGSGSESGSGPSSAGSGSGSESGSGSGSSGPGSTGGSGSESGSGPGSSGTGGTATGSGSESGSGPGSSGPGSTGSGSGSESGSGSGSSGTGSTGGSGSESGSGPGSPRPGSTGTGSGSESGSGPGSSERGSAGGSGSESGSGTSESSASGSTGGSGSESGSGSESGSGSGSESGSGPESPGSGGSGSESGSGTSGSTGSGSESGSGGGSGGGSGGNLVTAFSNMDDMLQKAHLVIEGTFIYLRDSTEFFIRVRDGWKKLQLGELIPIPA
# Target: human GLP-1 receptor (GLP-1R) (human, UniProt P43220 24-463)
# Assay: cell-based or functional assay
row,EC50 (nM) measured by cAMP assay [nM],Binder
1,2.2,B1
2,0.5,B2
3,0.4,B3
4,0.4,B4
5,0.6,B5
6,0.5,B6
7,0.5,B7
8,0.5,B8
